This note sets out measurements from publication PMC5618617 (International Journal of Molecular Sciences, 2017).

No end group written: not given here. cellulose support = cellulose support (Whatman 50 cellulose membrane) to which the peptide C-terminus is covalently bound

Details in all cases: both partners purified
In experiment [1] the target is T1, c-Met peptide E-7 (523–537) (Homo sapiens (Human)., cysteine pairing not given here).
T1 construct: c-Met, human, amino acids 523-537; source: synthetic peptide (JPT Peptide Technologies), on cellulose membrane
T1 chain: FQSCSQCLSAPPFVQ-{cellulose support}
The experiment can be described thus: peptide or protein array; overlapping 15-mer peptides of c-Met 1-932, 5 nmol/spot, bound by the C-terminus to cellulose; scFv in 5% skim milk at 4 °C overnight; bound scFv electroblotted to PVDF and detected with anti-HA-peroxidase.

The target of experiment [2] is T2, c-Met peptide F-7 (527–541) (Homo sapiens (Human)., cysteine pairing not given here).
T2 construct: c-Met, human, amino acids 527-541; source: synthetic peptide (JPT Peptide Technologies), on cellulose membrane
T2 chain: SQCLSAPPFVQCGWC-{cellulose support}
The experiment is described as above.

Experiment [3] addresses T3, c-Met peptide G-7 (531–545) (Homo sapiens (Human)., cysteine pairing not given here).
T3 construct: c-Met, human, amino acids 531-545; source: synthetic peptide (JPT Peptide Technologies), on cellulose membrane
T3 chain: SAPPFVQCGWCHDKC-{cellulose support}
The experiment is described as above.

A further experiment deals with T4, bovine serum albumin (Bos taurus (Bovine)., UniProt P02769).
T4 construct: serum albumin, bovine; also called BSA
The experiment in a line: SPR; Biacore T100; human c-Met, mouse c-Met or BSA amine-coupled on a CM5 chip; different concentrations of purified IRCR201 injected.

For experiment [4], the target named is T5, human c-Met extracellular domain (ECD)-fragment crystallizable region (Fc) (human, UniProt P08581).
T5 construct: hepatocyte growth factor receptor (c-Met), human, extracellular domain; c-Met is naturally cut into alpha and beta chains; also called human c-Met ECD-Fc; recombinant human whole c-Met ECD-Fc; source: bought: Sino Biological, 10692-H03H
Described as above.

The target in a further experiment is T6, mouse c-Met ECD-Fc (Mus musculus, UniProt P16056).
T6 construct: hepatocyte growth factor receptor (c-Met), mouse, extracellular domain; source: bought: Sino Biological, 50622-M02H
Described as above.

Experiment [5] has as its target T7, human RON (recepteur d'origine nantais) ECD-Fc (Homo sapiens, UniProt Q04912).
T7 construct: RON receptor tyrosine kinase (macrophage-stimulating protein receptor), human, extracellular domain; The legend calls it ECD-Fc; the catalogue number's ending (H08H) may stand for a His-tagged product (surmise); also called human RON protein; source: bought: Sino Biological, 11608-H08H
The experiment in a line: ELISA; 0.1 µg antigen coated per well at 4 °C overnight, blocked with 3% skim milk; dilutions of IRCR201 1 h at room temperature; goat anti-human IgG F(ab')2-HRP. A general note: An ELISA detects its analyte on a solid surface through an enzyme-linked reagent.

In experiment [6] the target is T5, human c-Met extracellular domain …. The experiment in a line: ELISA; competitive: recombinant human c-Met coated; pre-bound with or without 2.5 µg/mL HGF 1 h at room temperature; then IRCR201 or huOA5D5.v2 1 h; antibody detected with anti-human IgG F(ab')2-HRP.

B1: IRCR201 single-chain variable fragment (scFv) (scFv, V domains shown)
VH: EVQLLESGGGLVQPGGSLRLSCAASGFTFSNYAMSWVRQAPGKGLEWVSGISYSGGSTYYADSVKGRFTISRDNSKNTLYLQMNSLRAEDTAVYYCAKASRSCQRPACSYANGMDVWGQGTLVTVSS
VL: QSVLTQPPSASGTPGQRVTISCTGSSSNIGNNYVTWYQQLPGTAPKLLIYYNNHRPSGVPDRFSGSKSGTSASLAISGLQSEDEADYYCGSWDYSLSAYVFGGGTKLTVL
notes: VH and VL as in m1; Detected with anti-HA-peroxidase; also called scFv of IRCR201; IRCR201 scFv; source: E. coli TOP10F', purified from bacterial lysates (Ni-NTA agarose)
Consider B1, for which the binding result in experiment [1], in experiment [2] and in experiment [3] was “binds” throughout.

B2: IRCR201 (antibody, V domains shown)
VH: B1 VH
VL: B1 VL
notes: CDR-H3 of 18 amino acids; IgG1; frameworks are not pointed to; also called IRCR201 IgG1; fully human bivalent anti-c-Met antibody; source: Expi293 transient mammalian expression system, purified (HiTrap Mabselect SuRe); copies: 2 + 2
Usually Kd stands for the free concentration of one partner at which half of the binding sites on the other are occupied at equilibrium, for simple one-to-one binding. A lower Kd goes with tighter binding. One may read the koff as the rate constant with which the complex falls apart. Lower therefore signals slow dissociation. As a reminder, the kon is the rate constant with which the complex forms. Read a high kon as fast association. Turning to B2, the binding result with bovine serum albumin is on record as “no binding”. Besides, in experiment [4], the affinity, expressed as Kd, was 0.721 nM; the koff amounted to 0.00304 s⁻¹; the kon is 4.23e+06 M⁻¹ s⁻¹. Besides, in the experiment with mouse c-Met ECD-Fc, binding was characterised by a dissociation constant (Kd) of 0.845 nM, the koff is 0.00323 s⁻¹ and the kon stood at 3.83e+06 M⁻¹ s⁻¹. For the same molecule, the binding result in experiment [5] is “no binding”.

B3: onartuzumab (huOA5D5.v2) (antibody, V domains shown)
VH: EVQLVESGGGLVQPGGSLRLSCAASGYTFTSYWLHWVRQAPGKGLEWVGMIDPSNSDTRFNPNFKDRFTISADTSKNTAYLQMNSLRAEDTAVYYCATYRSYVTPLDYWGQGTLVTVSS
VL: DIQMTQSPSSLSASVGDRVTITCKSSQSLLYTSSQKNYLAWYQQKPGKAPKLLIYWASTRESGVPSRFSGSGSGTDFTLTISSLQPEDFATYYCQQYYAYPWTFGQGTKVEIK
notes: second chain of the monovalent knob-into-hole format; Engineered monovalent (one-armed) antibody made with knob-into-hole technology; also called MetMab; source: Expi293 transient mammalian expression system, purified (HiTrap Mabselect SuRe); copies: 1 + 1 + 1
As to B3, in experiment [6], the binding result was “binds”.
